The EC50 is the concentration needed to bring the measured effect to its halfway point. The Kd is the constant that tells how readily two partners part at equilibrium. One may read the koff as the first-order rate constant of dissociation. The term kon denotes the rate constant with which the complex forms.

The target of experiment [1] is T1, EGFR on cells (UniProt P00533 25-1210, limits assumed).
T1 construct: whole, on cells; also called HER14 cells (NIH3T3 transfected with EGFR); EGFR on LS174T and LoVo cells
The experiment is described as follows: flow cytometry, LoVo cells. Also noted: Top: unit not given here. A general note: Flow cytometry measures light scatter and fluorescence of single cells or particles in a stream.

The target of experiment [2] is T1, EGFR on cells. The experiment is described as follows: flow cytometry, HER14 cells.
For experiment [3], the target named is T1, EGFR on cells. Kind of experiment: flow cytometry, LS174T cells. Further details: Top: unit not given here.
Experiment [4] concerns the target T2, hEGFR (Sino Biological, #10001-H08H) (human, UniProt P00533 25-645).
T2 construct: extracellular domain; Bought protein; also called hEGFR ECD; human EGFR protein
Kind of experiment: SPR (Biacore T100), immobilized hEGFR, 1:1 model. The method, then: Thereto, hEGFR (Sino Biological, #10001-H08H) was immobilized onto a CM5 chip via amine coupling, using EDC and NHS chemistry. Purified Nanobodies were injected for 2 minutes at different concentrations (between 1.37 and 3000 nM) and allowed to dissociate for 15 min at a flow rate of 45 μl/min. In between sample injections, the surfaces were regenerated with 50 mM NaOH. HBS-EP+(Hepes buffer pH7.4) was used as running buffer.
(§1) The kinetic constants were calculated from the sensorgrams using the BIAEvaluation software (1:1 interaction). The affinity constants (KD) were calculated from resulting association and dissociation rate constants kon and koff, and are shown in Table C-29.
(In SPR one partner is held on a chip, and binding of the other changes the refractive index at the surface.)

Experiment [5] deals with T3, T cell receptor alpha/beta on purified primary human T cells (human, UniProt P01848 1-140; P01850 1-176).
T3 construct: whole, on cells; also called human primary T cells
T3 TCR alpha (looked up): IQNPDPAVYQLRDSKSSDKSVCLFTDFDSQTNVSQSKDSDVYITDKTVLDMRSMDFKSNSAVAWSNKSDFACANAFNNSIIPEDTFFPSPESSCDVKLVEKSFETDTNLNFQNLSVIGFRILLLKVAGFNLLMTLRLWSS
T3 TCR beta (looked up): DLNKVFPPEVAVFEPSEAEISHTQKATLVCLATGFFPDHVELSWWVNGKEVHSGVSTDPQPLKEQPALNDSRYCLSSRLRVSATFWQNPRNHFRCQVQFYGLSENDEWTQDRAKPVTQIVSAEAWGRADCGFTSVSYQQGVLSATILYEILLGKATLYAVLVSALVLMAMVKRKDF
Kind of experiment: flow cytometry on primary human T cells, MeanFI (PE).

Experiment [6] addresses T4, CEACAM5 on cells (UniProt P06731 35-685).
T4 sequence (looked up): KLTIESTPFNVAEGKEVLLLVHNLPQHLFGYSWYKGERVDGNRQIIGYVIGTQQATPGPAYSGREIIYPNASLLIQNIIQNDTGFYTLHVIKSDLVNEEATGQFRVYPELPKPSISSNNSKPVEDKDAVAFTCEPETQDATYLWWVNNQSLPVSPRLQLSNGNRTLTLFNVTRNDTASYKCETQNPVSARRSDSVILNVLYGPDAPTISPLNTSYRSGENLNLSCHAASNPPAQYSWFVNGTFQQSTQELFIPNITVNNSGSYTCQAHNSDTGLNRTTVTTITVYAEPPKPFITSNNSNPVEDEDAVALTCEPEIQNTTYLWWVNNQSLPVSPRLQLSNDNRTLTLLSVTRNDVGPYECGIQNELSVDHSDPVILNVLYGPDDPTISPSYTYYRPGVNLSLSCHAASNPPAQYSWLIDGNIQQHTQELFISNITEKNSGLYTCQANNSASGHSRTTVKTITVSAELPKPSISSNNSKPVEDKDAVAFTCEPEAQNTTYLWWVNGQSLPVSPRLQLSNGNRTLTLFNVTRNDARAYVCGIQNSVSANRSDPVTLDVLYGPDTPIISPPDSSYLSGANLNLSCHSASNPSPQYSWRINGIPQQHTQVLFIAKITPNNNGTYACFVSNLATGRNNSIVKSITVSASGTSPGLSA
The experiment is described as follows: cell-based or functional assay.

Experiment [7] has as its target T4, CEACAM5 on cells. Kind of experiment: cell-based or functional assay. The source holds these as a separate data set.
Experiment [8] addresses T4, CEACAM5 on cells. Kind of experiment: flow cytometry, LoVo cells. Further details: Top: unit not given here.
For experiment [9], the target named is T4, CEACAM5 on cells. Kind of experiment: flow cytometry, LS174T cells. Also noted: Top: unit not given here.
The target of experiment [10] is T1, EGFR on cells. The experiment is described as follows: flow cytometry on HER14 cells, MeanFI (PE).
The target in experiment [11] is T5, hCEACAM-5 (R&D Systems, #4128-CM) (human, UniProt P06731 35-685).
T5 construct: Bought protein; also called human CEACAM5 protein
T5 sequence (looked up): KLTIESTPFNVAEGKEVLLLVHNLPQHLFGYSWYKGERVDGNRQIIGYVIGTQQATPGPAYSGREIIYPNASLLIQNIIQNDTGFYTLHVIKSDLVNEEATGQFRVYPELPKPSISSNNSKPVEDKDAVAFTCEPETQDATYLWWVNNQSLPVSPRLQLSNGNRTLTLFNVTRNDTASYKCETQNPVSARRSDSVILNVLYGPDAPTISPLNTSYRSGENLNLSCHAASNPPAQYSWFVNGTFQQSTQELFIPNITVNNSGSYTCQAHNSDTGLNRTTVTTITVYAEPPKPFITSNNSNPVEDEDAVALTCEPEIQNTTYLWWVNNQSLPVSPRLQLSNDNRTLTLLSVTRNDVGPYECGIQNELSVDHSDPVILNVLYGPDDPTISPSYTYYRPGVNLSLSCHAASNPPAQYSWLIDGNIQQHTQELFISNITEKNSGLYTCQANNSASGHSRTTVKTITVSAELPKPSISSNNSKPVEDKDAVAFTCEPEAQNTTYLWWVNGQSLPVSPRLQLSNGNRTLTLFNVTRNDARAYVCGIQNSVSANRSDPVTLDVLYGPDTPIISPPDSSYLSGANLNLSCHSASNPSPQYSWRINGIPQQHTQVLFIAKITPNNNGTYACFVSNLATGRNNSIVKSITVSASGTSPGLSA
Kind of experiment: SPR (Biacore T100), immobilized hCEACAM-5, 1:1 model. As to the method: Thereto, hCEACAM-5 (R&D Systems, #4128-CM) was immobilized onto a CM5 chip via amine coupling, using EDC and NHS chemistry. Purified Nanobodies were injected for 2 minutes at different concentrations (between 0.31 and 2000 nM) and allowed to dissociate for 15 min at a flow rate of 45 μl/min. In between sample injections, the surfaces were regenerated with 10 mM Glycine pH 1.5. HBS-EP+(Hepes buffer pH7.4) was used as running buffer.
as §1

B1: EGFR038G07 (VHH)
VHH: EVQLVESGGGLVQAGGSLRLSCAASGRTFSSYVMGWFRQATGKEREFVATIAWDSGSTYYADSVKGRFTISRDNAKNTVHLQMNSLKPEDTAVYYCAASYNVYYNNYYYPISRDEYDYWGQGTLVTVSS
notes: Monovalent Nanobody; also called monovalent anti-EGFR Nanobody; EGFR monovalent Nanobody
In experiment [1], B1 gave an EC50 of 0.54 nM and a Top of 52300. In [2], this molecule yielded an EC50 of 1.8 nM and a Top of 166000. In experiment [3], this molecule had an EC50 of 0.93 nM and a Top of 32200. For the same molecule, in experiment [4], the affinity, expressed as Kd, was 0.763 nM; the koff stood at 0.000426 s⁻¹; the kon was determined as 558000 M⁻¹ s⁻¹. Moreover, in experiment [5], the binding result is given as “no binding (tested: 5e-7 M)”.

B2: T017000109 (other)
chain: EVQLVESGGGSVQAGGSLRLSCAASGYTIGPYCMGWFRQAPGKEREGVAAINMGGGITYYADSVKGRFTISQDNAKNTVYLLMNSLEPEDTAIYYCAADSTIYASYYECGHGLSTGGYGYDSWGQGTLVTVSSGGGGSGGGGSGGGGSGGGGSGGGGSGGGGSGGGGSEVQLVESGGGSVQAGGSLRLSCAASGDTYGSYWMGWFRQAPGKEREGVAAINRGGGYTVYADSVKGRFTISRDTAKNTVYLQMNSLRPDDTADYYCAASGVLGGLHEDWFNYWGQGTLVTVSSGGGGSGGGGSGGGGSGGGGSGGGGSGGGGSGGGGSEVQLVESGGGLVQPGGSLRLSCVASGDVHKINFLGWYRQAPGKEREKVAHISIGDQTDYADSAKGRFTISRDESKNMVYLQMNSLKPEDTAVYFCRAFSRIYPYDYWGQGTLVTVSSGAADYKDHDGDYKDHDIDYKDDDDKGAAHHHHHH
notes: Irrelevant (anti-egg lysozyme) x CEACAM5 x TCR Nanobody construct; entry includes the FLAG3-HIS6 tag; also called cAbLys3(D1E,Q5V,A6E,Q108L)-35GS-NbCEA5-35GS-T0170056G05-FLAG3-HIS6
Take B2: in experiment [6], the “IC50, xCELLigence human T cell mediated killing of LS174T cells, E:T 15, 30-40 h” value is 100 nM and the “IC50, xCELLigence human T cell mediated killing of LoVo cells, E:T 15, 30-40 h” value is 9.3 nM. In addition, in [7], the “IC50, xCELLigence human T cell mediated killing of LS174T cells, E:T 15, 50-60 h” value was 36 nM and the “IC50, xCELLigence human T cell mediated killing of LoVo cells, E:T 15, 50-60 h” value stood at 2 nM. In experiment [8], this molecule had a 50% effective concentration (EC50) of 36 nM and a Top of 18500. In experiment [9], the EC50 was 25 nM and the Top came out at 51000. The binding result in [10] is “no binding (tested: 5e-7 M)”.

B3: NbCEA5 (VHH)
VHH: EVQLVESGGGSVQAGGSLRLSCAASGDTYGSYWMGWFRQAPGKEREGVAAINRGGGYTVYADSVKGRFTISRDTAKNTVYLQMNSLRPDDTADYYCAASGVLGGLHEDWFNYWGQGTLVTVSS
notes: Monovalent Nanobody; also called CEA#1; monovalent anti-CEA Nanobody
In experiment [8], B3 gave an EC50 of 1.2 nM and a Top of 11200. In [9], this molecule showed an EC50 of 0.59 nM and a Top of 43000. The binding result in [10] is recorded as “no binding (tested: 5e-7 M)”. For the same molecule, in [11], the Kd was found to be 0.51 nM, the koff is 0.00051 s⁻¹ and the on-rate constant (kon) was 990000 M⁻¹ s⁻¹. Also, the binding result in [5] is given as “no binding (tested: 5e-7 M)”.

These data come from patent US20190112392A1 (Ablynx, published 2019).
